The text below walks through data of the supplement of paper PMC5998384.

The subject of data set [1] is HeLa Kyoto. As to the kind of experiment: solubility in G1/S (NP-40 vs SDS abundance) (log2 ratio); higher = more soluble. The conditions noted are these: cell cycle stage: G1/S.
Data set [2] concerns HeLa Kyoto. Kind of data set: solubility change mitosis vs G1/S (difference of NP-40 vs SDS log2 ratios) (log2 ratio difference); higher = more soluble in mitosis.
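Throughout, for solubility change mitosis vs G1/S (difference of NP-40 vs SDS log2 ratios): synchronized HeLa Kyoto cells (double thymidine block for G1/S, nocodazole release for mitosis), protein amounts in NP-40 versus SDS lysates quantified by mass spectrometry, three biological replicates.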
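Throughout, for solubility in G1/S (NP-40 vs SDS abundance): HeLa Kyoto cells arrested at G1/S by double thymidine block, proteins quantified by TMT10plex mass spectrometry in mild NP-40 versus SDS extracts, three biological replicates.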

In the case of “MSLPLTEEQRKKIEENRQKALARRAEKLLAEQHQRTSSGTSIAGNPFQAKQGPSQNFPRESCKPVSHGVIFKQQNLSSSSNADQRPHDSHSFQAKGIWKKPEEMPTACPGHSPRSQMALTGISPPLAQSPPEVPKQQLLSYELGQGHAQASPEIRFTPFANPTHKPLAKPKSSQETPAHSSGQPPRDAKLEAKTAKASPSGQNISYIHSSSESVTPRTEGRLQQKSGSSVQKGVNSQKGKCVRNGDRFQVLIGYNAELIAVFKTLPSKNYDPDTKTWNFSMNDYSALMKAAQSLPTVNLQPLEWAYGSSESPSTSSEGQAGLPSAPSLSFVKGRCMLISRAYFEADISYSQDLIALFKQMDSRRYDVKTRKWSFLLEEHSKLIAKVRCLPQVQLDPLPTTLTLAFASQLKKTSLSLTPDVPEADLSEVDPKLVSNLMPFQRAGVNFAIAKGGRLLLADDMGLGKTIQAICIAAFYRKEWPLLVVVPSSVRFTWEQAFLRWLPSLSPDCINVVVTGKDRLTAGLINIVSFDLLSKLEKQLKTPFKVVIIDESHFLKNSRTARCRAAMPVLKVAKRVILLSGTPAMSRPAELYTQIIAVKPTFFPQFHAFGLRYCDAKRMPWGWDYSGSSNLGELKLLLEEAVMLRRLKSDVLSQLPAKQRKIVVIAPGRINARTRAALDAAAKEMTTKDKTKQQQKDALILFFNRTAEAKIPSVIEYILDLLESGREKFLVFAHHKVVLDAITQELERKHVQHIRIDGSTSSAEREDLCQQFQLSERHAVAVLSITAANMGLTFSSADLVVFAELFWNPGVLIQAEDRVHRIGQTSSVGIHYLVAKGTADDYLWPLIQEKIKVLAEAGLSETNFSEMTESTDYLYKDPKQQKIYDLFQKSFEKEGSDMELLEAAESFDPGSASGTSGSSSQNMGDTLDESSLTASPQKKRRFEFFDNWDSFTSPL [SMARCAL1]”, in the data set on HeLa Kyoto [1], the “solubility in G1/S (log2)” value turned out to be 0.0557. For the same sequence, the “solubility change mitosis (log2)” value in the data set with HeLa Kyoto [2] is 0.0546.
For “MSLRRHIGNPEYLMKRIPQNPRYQHIKSRLDTGNSMTKYTEKLEEIKKNYRYKKDELFKRLKVTTFAQLIIQVASLSDQTLEVTAEEIQRLEDNDSAASDPDAETTARTNGKGNPGEQSPSPEQFINNAGAGDSSRSTLQSVISGVGELDLDKGPVKKAEPHTKDKPYPDCPFLLLDVRDRDSYQQCHIVGAYSYPIATLSRTMNPYSNDILEYKNAHGKIIILYDDDERLASQAATTMCERGFENLFMLSGGLKVLAQKFPEGLITGSLPASCQQALPPGSARKRSSPKGPPLPAENKWRFTPEDLKKIEYYLEEEQGPADHPSRLNQANSSGRESKVPGARSAQNLPGGGPASHSNPRSLSSGHLQGKPWK [CEP41]”, in that order: 0.311 and 0.231.
For “MSMTLGYWDIRGLAHAIRLLLEYTDSSYEEKKYTMGDAPDYDRSQWLNEKFKLGLDFPNLPYLIDGAHKITQSNAILCYIARKHNLCGETEEEKIRVDILENQAMDVSNQLARVCYSPDFEKLKPEYLEELPTMMQHFSQFLGKRPWFVGDKITFVDFLAYDVLDLHRIFEPNCLDAFPNLKDFISRFEGLEKISAYMKSSRFLPKPLYTRVAVWGNK [GSTM4]”, in that order: -0.0869 and -0.101.
The matching figures for “MSNGYSTDENFRYLISCFRARVKMYIQVEPVLDYLTFLPAEVKEQIQRTVATSGNMQAVELLLSTLEKGVWHLGWTREFVEALRRTGSPLAARYMNPELTDLPSPSFENAHDEYLQLLNLLQPTLVDKLLVRDVLDKCMEEELLTIEDRNRIAAAENNGNESGVRELLKRIVQKENWFSAFLNVLRQTGNNELVQELTGSDCSESNAEIENLSQVDGPQVEEQLLSTTVQPNLEKEVWGMENNSSESSFADSSVVSESDTSLAEGSVSCLDESLGHNSNMGSDSGTMGSDSDEENVAARASPEPELQLRPYQMEVAQPALEGKNIIICLPTGSGKTRVAVYIAKDHLDKKKKASEPGKVIVLVNKVLLVEQLFRKEFQPFLKKWYRVIGLSGDTQLKISFPEVVKSCDIIISTAQILENSLLNLENGEDAGVQLSDFSLIIIDECHHTNKEAVYNNIMRHYLMQKLKNNRLKKENKPVIPLPQILGLTASPGVGGATKQAKAEEHILKLCANLDAFTIKTVKENLDQLKNQIQEPCKKFAIADATREDPFKEKLLEIMTRIQTYCQMSPMSDFGTQPYEQWAIQMEKKAAKEGNRKERVCAEHLRKYNEALQINDTIRMIDAYTHLETFYNEEKDKKFAVIEDDSDEGGDDEYCDGDEDEDDLKKPLKLDETDRFLMTLFFENNKMLKRLAENPEYENEKLTKLRNTIMEQYTRTEESARGIIFTKTRQSAYALSQWITENEKFAEVGVKAHHLIGAGHSSEFKPMTQNEQKEVISKFRTGKINLLIATTVAEEGLDIKECNIVIRYGLVTNEIAMVQARGRARADESTYVLVAHSGSGVIEHETVNDFREKMMYKAIHCVQNMKPEEYAHKILELQMQSIMEKKMKTKRNIAKHYKNNPSLITFLCKNCSVLACSGEDIHVIEKMHHVNMTPEFKELYIVRENKALQKKCADYQINGEIICKCGQAWGTMMVHKGLDLPCLKIRNFVVVFKNNSTKKQYKKWVELPITFPNLDYSECCLFSDED [IFIH1]”: -0.109 and -0.0235.
As for “MSNNLRRVFLKPAEENSGNASRCVSGCMYQVVQTIGSDGKNLLQLLPIPKSSGNLIPLVQSSVMSDALKGNTGKPVQVTFQTQISSSSTSASVQLPIFQPASSSNYFLTRTVDTSEKGRVTSVGTGNFSSSVSKVQSHGVKIDGLTMQTFAVPPSTQKDSSFIVVNTQSLPVTVKSPVLPSGHHLQIPAHAEVKSVPASSLPPSVQQKILATATTSTSGMVEASQMPTVIYVSPVNTVKNVVTKNFQNIYPKPVTEIAKPVILNTTQIPKNVATETQLKGGQHSQAAPVKWIFQDNLQPFTPSLVPVKSSNNVASKILKTFVDRKNLGDNTINMPPLSTIDPSGTRSKNMPIKDNALVMFNGKVYLLAKKGTDVLPSQIDQQNSVSPDTPVRKDTLQTVSSSPVTEISREVVNIVLAKSKSSQMETKSLSNTQLASMANLRAEKNKVEKPSPSTTNPHMNQSSNYLKQSKTLFTNPIFPVGFSTGHNAPRKVTAVIYARKGSVLQSIEKISSSVDATTVTSQQCVFRDQEPKIHNEMASTSDKGAQGRNDKKDSQGRSNKALHLKSDAEFKKIFGLTKDLRVCLTRIPDHLTSGEGFDSFSSLVKSGTYKETEFMVKEGERKQQNFDKKRKAKTNKKMDHIKKRKTENAYNAIINGEANVTGSQLLSSILPTSDVSQHNILTSHSKTRQEKRTEMEYYTHEKQEKGTLNSNAAYEQSHFFNKNYTEDIFPVTPPELEETIRDEKIRRLKQVLREKEAALEEMRKKMHQK [LRIF1]”, the “solubility in G1/S (log2)” value in the data set with HeLa Kyoto [1] is -0.92. In the data set with HeLa Kyoto [2], the “solubility change mitosis (log2)” value came out at 0.89.
Turning to “MSRLEAKKPSLCKSEPLTTERVRTTLSVLKRIVTSCYGPSGRLKQLHNGFGGYVCTTSQSSALLSHLLVTHPILKILTASIQNHVSSFSDCGLFTAILCCNLIENVQRLGLTPTTVIRLNKHLLSLCISYLKSETCGCRIPVDFSSTQILLCLVRSILTSKPACMLTRKETEHVSALILRAFLLTIPENAEGHIILGKSLIVPLKGQRVIDSTVLPGILIEMSEVQLMRLLPIKKSTALKVALFCTTLSGDTSDTGEGTVVVSYGVSLENAVLDQLLNLGRQLISDHVDLVLCQKVIHPSLKQFLNMHRIIAIDRIGVTLMEPLTKMTGTQPIGSLGSICPNSYGSVKDVCTAKFGSKHFFHLIPNEATICSLLLCNRNDTAWDELKLTCQTALHVLQLTLKEPWALLGGGCTETHLAAYIRHKTHNDPESILKDDECTQTELQLIAEAFCSALESVVGSLEHDGGEILTDMKYGHLWSVQADSPCVANWPDLLSQCGCGLYNSQEELNWSFLRSTRRPFVPQSCLPHEAVGSASNLTLDCLTAKLSGLQVAVETANLILDLSYVIEDKN [MKKS]”, the “solubility in G1/S (log2)” value in the data set on HeLa Kyoto [1] is -0.925. Moreover, in the data set with HeLa Kyoto [2], the “solubility change mitosis (log2)” value was 0.46.
On to “MSRSGAAAEKADSRQRPQMKVNEYKENQNIAYVSLRPAQTTVLIKTAKVYLAPFSLSNYQLDQLMCPKSLSEKNSNNEVACKKTKIKKTCRRIIPPKMKNTSSKAESTLQNSSSAVHTESNKLQPKRTADAMNLSVDVESSQDGDSDEDTTPSLDFSGLSPYERKRLKNISENADFFASLQLSESAARLREMIEKRQPPKSKRKKPKRENGIGCRRSMRLLKVDPSGVSLPAAPTPPTLVADETPLLPPGPLEMTSENQEDNNERFKGFLHTWAGMSKPSSKNTEKGLSSIKSYKANLNGMVISEDTVYKVTTGPIFSMALHPSETRTLVAVGAKFGQVGLCDLTQQPKEDGVYVFHPHSQPVSCLYFSPANPAHILSLSYDGTLRCGDFSRAIFEEVYRNERSSFSSFDFLAEDASTLIVGHWDGNMSLVDRRTPGTSYEKLTSSSMGKIRTVHVHPVHRQYFITAGLRDTHIYDARRLNSRRSQPLISLTEHTKSIASAYFSPLTGNRVVTTCADCNLRIFDSSCISSKIPLLTTIRHNTFTGRWLTRFQAMWDPKQEDCVIVGSMAHPRRVEIFHETGKRVHSFGGEYLVSVCSINAMHPTRYILAGGNSSGKIHVFMNEKSC [WDR76]”, for which the “solubility in G1/S (log2)” value in the data set on HeLa Kyoto [1] is -1.61. In the data set on HeLa Kyoto [2], the “solubility change mitosis (log2)” value came out at 1.15.
With “MSSKMVISEPGLNWDISPKNGLKTFFSRENYKDHSMAPSLKELRVLSNRRIGENLNASASSVENEPAVSSATQAKEKVKTTIGMVLLPKPRVPYPRFSRFSQREQRSYVDLLVKYAKIPANSKAVGINKNDYLQYLDMKKHVNEEVTEFLKFLQNSAKKCAQDYNMLSDDARLFTEKILRACIEQVKKYSEFYTLHEVTSLMGFFPFRVEMGLKLEKTLLALGSVKYVKTVFPSMPIKLQLSKDDIATIETSEQTAEAMHYDISKDPNAEKLVSRYHPQIALTSQSLFTLLNNHGPTYKEQWEIPVCIQVIPVAGSKPVKVIYINSPLPQKKMTMRERNQIFHEVPLKFMMSKNTSVPVSAVFMDKPEEFISEMDMSCEVNECRKIESLENLYLDFDDDVTELETFGVTTTKVSKSPSPASTSTVPNMTDAPTAPKAGTTTVAPSAPDISANSRSLSQILMEQLQKEKQLVTGMDGGPEECKNKDDQGFESCEKVSNSDKPLIQDSDLKTSDALQLENSQEIETSNKNDMTIDILHADGERPNVLENLDNSKEKTVGSEAAKTEDTVLCSSDTDEECLIIDTECKNNSDGKTAVVGSNLSSRPASPNSSSGQASVGNQTNTACSPEESCVLKKPIKRVYKKFDPVGEILKMQDELLKPISRKVPELPLMNLENSKQPSVSEQLSGPSDSSSWPKSGWPSAFQKPKGRLPYELQDYVEDTSEYLAPQEGNFVYKLFSLQDLLLLVRCSVQRIETRPRSKKRKKIRRQFPVYVLPKVEYQACYGVEALTESELCRLWTESLLHSNSSFYVGHIDAFTSKLFLLEEITSEELKEKLSALKISNLFNILQHILKKLSSLQEGSYLLSHAAEDSSLLIYKASDGKVTRTAYNLYKTHCGLPGVPSSLSVPWVPLDPSLLLPYHIHHGRIPCTFPPKSLDTTTQQKIGGTRMPTRSHRNPVSMETKSSCLPAQQVETEGVAPHKRKIT [ICE2]”, the “solubility in G1/S (log2)” value in the data set with HeLa Kyoto [1] is -0.234. In addition, the “solubility change mitosis (log2)” value in the data set on HeLa Kyoto [2] was 0.281.
